Results from paper PMC5118228 (EJNMMI Research, 2016).

Experiments:
[1] = test system: neutrophil gelatinase-associated lipocalin (NGAL); experiment: Serum NGAL by ELISA (kidney injury biomarker); assay type: in vivo, mice
Experimental: MTD was defined as the highest dose given to the animals allowing 100% survival with no significant weight loss >15% throughout the experiment. Nontumor-bearing mice were randomly divided into seven cohorts used to evaluate MTD, six treatments and one control (n = 8/cohort); see Table 1. […] Control mice received DOTATATE (4 × 0.3 nmol) on four consecutive days. The animals were followed for 90 days. Serum was analyzed for the biomarker neutrophil gelatinase-associated lipocalin (NGAL) using ELISA (R&D Systems, 450 nm).

AR42J tumor = conditions: low-dose (16.8 ± 1.3 MBq) and high-dose (33.1 ± 3.7 MBq); AR42J tumor-bearing mice
Experimental: Athymic male nu/nu mice (Tachonic), 6–8 weeks old, were used in all studies. Tumor models were established by inoculating 5 × 10^6 rat pancreatic tumor AR42J cells (American Type Culture Collection) with high SSTR2 expression into the right hind flank of the animals. After 3 weeks, the tumor size reached approximately 200 mm^3. All animal experiments were carried out following Institutional Animal Care and Use Committee-approved protocol.
Toxicity and therapeutic efficacy were investigated in 18 animals (n = 6/cohort): control, low-dose (cumulative 16.8 ± 1.3 MBq), and high-dose (cumulative 33.1 ± 3.7 MBq) cohorts. Treatment started 23 days after xenograft inoculation. Control mice received in total 4 × 0.3 nmol DOTATATE on two consecutive days. Two injections of 0.3 nmol DOTATATE per day were given, with a time interval of at least 6 h. […] The high-dose cohort received four doses on two consecutive days, twice a day with a time interval of at least 6 h. […] Animals were monitored for 30 days starting on the day of treatment. Tumors were measured by caliper, and animals were weighed at least twice weekly. The endpoints chosen were weight loss >15% and tumor volume >2000 mm^3. […]

C[C@@H](O)[C@H](NC(=O)[C@@H]1CSSC[C@H](NC(=O)[C@@H](Cc2ccccc2)NC(=O)CN2CCN(CC(=O)O)CCN(CC(=O)O)CCN(CC(=O)O)CC2)C(=O)N[C@@H](Cc2ccc(O)cc2)C(=O)N[C@H](Cc2c[nH]c3ccccc23)C(=O)N[C@@H](CCCCN)C(=O)N[C@@H]([C@@H](C)O)C(=O)N1)C(=O)O [^213Bi-DOTATATE, metal not drawn]
NGAL level ([1]; high-dose(−), 28.7 ± 1.2 MBq, without L-lysine, serum ELISA): 15.8 ± 3.5 ng/mL | nephrotoxicity (NGAL) ([1]; low-dose(−) and low-dose(+) cohorts): No nephrotoxicity | tumor volume (AR42J tumor): significantly decreased
